# Results taken from paper PMC7005744, “Cis- and trans-regulations of pre-mRNA splicing by RNA editing enzymes influence cancer development”.
# T1: ADAR1 (UniProt P55265 296-1226)
# T1 sequence: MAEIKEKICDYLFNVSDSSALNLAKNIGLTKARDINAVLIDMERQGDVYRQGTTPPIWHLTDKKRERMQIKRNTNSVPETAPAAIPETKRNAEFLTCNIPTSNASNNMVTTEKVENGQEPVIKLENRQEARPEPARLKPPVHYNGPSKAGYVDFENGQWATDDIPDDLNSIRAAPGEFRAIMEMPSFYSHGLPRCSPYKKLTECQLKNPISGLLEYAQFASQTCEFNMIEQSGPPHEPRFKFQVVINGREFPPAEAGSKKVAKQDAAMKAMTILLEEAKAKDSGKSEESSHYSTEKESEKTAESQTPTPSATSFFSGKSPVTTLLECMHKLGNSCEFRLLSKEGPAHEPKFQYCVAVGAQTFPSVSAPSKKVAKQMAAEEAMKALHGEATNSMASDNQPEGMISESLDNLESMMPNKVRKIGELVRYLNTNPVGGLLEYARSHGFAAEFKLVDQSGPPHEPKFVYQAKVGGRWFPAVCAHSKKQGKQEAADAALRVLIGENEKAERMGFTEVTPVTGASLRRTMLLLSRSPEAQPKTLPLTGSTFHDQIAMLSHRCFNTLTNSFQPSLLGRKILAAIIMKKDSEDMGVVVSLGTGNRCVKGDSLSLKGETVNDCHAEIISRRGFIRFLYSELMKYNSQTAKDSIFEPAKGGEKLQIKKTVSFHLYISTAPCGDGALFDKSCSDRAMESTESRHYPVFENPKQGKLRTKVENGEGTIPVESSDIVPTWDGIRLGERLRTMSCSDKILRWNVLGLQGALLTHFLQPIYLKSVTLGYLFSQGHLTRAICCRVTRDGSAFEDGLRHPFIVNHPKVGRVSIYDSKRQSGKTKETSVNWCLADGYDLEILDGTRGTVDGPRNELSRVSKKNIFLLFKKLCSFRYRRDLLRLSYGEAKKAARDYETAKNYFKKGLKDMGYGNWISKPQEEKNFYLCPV
# Tests used:
# ADAR1 = target: T1, ADAR1; assay: EMSA; dose-dependent shift; REMSA/UV: 0.5 pmol 32P probe, 1x REMSA binding buffer (Thermo), 0.1 ug/ul yeast tRNA, room temperature 30 min, 6% native PAGE; pull-down: 250 mM NaCl, 10 mM MgCl2, 50 mM Hepes pH 7.4, 0.5% Igepal CA-630, tRNA, 4 C or RT 30 min; settings: protein: recombinant; tags: FLAG; chain copies: 2; label: 5' 32P; hairpin
# ADAR2 = ADAR2 (UniProt P78563 1-741); assay: as above; settings: protein: recombinant; tags: FLAG; chain copies: 2; label: 5' 32P; hairpin
binder,measurement,setting,value
GGUAGAAAAGAAAAAUGACACUCGAGUGUUUUUUUCUCUUCUACUU (structured_RNA) [CCDC15 In8-9 WT],binding result,ADAR1,binds
same,binding result,ADAR2,binds
